In patent publication US7101845 (JOSLIN DIABETES CENTER, dated 2006):
Positions of bridges follow the written chain, without caps; N, C: chain ends.

Target: MCH receptor (MCHR1) (mouse, UniProt Q8JZL2 1-353)
Experiment: cell-based or functional assay

Chain of MCH receptor (MCHR1) (Q8JZL2 whole entry): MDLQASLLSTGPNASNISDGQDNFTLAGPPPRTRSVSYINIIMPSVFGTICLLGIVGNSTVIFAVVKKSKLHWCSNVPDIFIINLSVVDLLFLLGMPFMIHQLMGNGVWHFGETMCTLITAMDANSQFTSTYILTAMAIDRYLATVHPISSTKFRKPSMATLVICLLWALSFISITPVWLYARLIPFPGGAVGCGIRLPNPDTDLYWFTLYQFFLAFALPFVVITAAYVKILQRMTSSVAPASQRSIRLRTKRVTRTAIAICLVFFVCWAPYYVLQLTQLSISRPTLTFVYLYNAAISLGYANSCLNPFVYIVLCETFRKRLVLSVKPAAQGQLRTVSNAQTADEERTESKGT

insulin secretion from islets of MCH over expressing mice: 4 fold | insulin secretion from overnight cultured islets of C57B1/6J mice, 100 nM MCH, 30 min, 11.1 mM glucose: 2.4 fold
Binder: H-DFDMLRCMLGRVYRPCWQV-OH (disulfide 7-16 (inferred)) [Melanocyte concentrating hormone (MCH)]
